Data published in patent US20240325529A1, “MEDICAMENT FOR TREATMENT AND/OR PREVENTION OF CANCER” (TORAY INDUSTRIES, INC., priority 2021, published 2024).
Substitutions are numbered along the chain they refer to. One block for each molecule: values may come before it.

Assays:
[1] = tested on: Basal-like subtype of breast cancer (BLBC); conditions: added to docetaxel after epirubicin and cyclophosphamide (EC treatment); cited from earlier work
[2] = target: T1, human CAPRIN-1 protein on cell membrane surfaces of human cancer cells (human, UniProt Q14444 2-709); assay: flow cytometry on cancer cells expressing CAPRIN-1
T1 construct: whole, on cells; Endogenous protein on cancer cells, stained without permeation of the cell membrane
T1 sequence (looked up): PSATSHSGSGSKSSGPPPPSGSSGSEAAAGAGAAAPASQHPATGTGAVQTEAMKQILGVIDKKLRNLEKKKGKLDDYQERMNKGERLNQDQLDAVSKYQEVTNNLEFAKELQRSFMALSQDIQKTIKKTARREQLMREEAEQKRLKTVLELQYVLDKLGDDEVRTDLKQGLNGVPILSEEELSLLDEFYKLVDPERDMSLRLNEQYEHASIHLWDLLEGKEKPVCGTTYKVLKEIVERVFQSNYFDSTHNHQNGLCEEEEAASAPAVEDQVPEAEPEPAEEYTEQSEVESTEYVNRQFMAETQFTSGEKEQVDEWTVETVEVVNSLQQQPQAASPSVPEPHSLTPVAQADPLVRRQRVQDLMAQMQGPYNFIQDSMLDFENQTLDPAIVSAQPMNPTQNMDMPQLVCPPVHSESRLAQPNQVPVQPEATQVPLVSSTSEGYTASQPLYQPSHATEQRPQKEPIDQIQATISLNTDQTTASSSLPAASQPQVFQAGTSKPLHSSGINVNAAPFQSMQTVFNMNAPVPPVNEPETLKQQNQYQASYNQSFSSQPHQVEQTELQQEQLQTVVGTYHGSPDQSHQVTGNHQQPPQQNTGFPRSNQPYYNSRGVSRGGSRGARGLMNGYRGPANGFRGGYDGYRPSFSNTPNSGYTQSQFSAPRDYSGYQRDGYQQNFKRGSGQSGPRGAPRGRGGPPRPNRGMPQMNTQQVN

[3] = target: T2, CAPRIN-1 on cell membrane surfaces of human cancer cells (Homo sapiens, UniProt Q14444); assay: Flow cytometry reactivity with cell membrane surfaces of human cancer cells expressing CAPRIN-1; assay type: binding; conditions: human cancer cells: BT-474, HT-29, QG56, H1650, NCI-N87, HEC-1-A, 22Rv1, Panc10.5, Hep3B, SKOV3, Caki-2, U-87MG, T24, OE33, OCI-AML5, Ramos, TGBC 14TKB, HT-1080, G-361
T2 construct: endogenous in cells; host or cells: human cancer cell lines (BT-474, HT-29, QG56, H1650, NCI-N87, HEC-1-A, 22Rv1, Panc10.5, Hep3B, SKOV3, Caki-2, U-87MG, T24, OE33, OCI-AML5, Ramos, TGBC 14TKB, HT-1080, G-361)
T2 sequence (Q14444 1-709): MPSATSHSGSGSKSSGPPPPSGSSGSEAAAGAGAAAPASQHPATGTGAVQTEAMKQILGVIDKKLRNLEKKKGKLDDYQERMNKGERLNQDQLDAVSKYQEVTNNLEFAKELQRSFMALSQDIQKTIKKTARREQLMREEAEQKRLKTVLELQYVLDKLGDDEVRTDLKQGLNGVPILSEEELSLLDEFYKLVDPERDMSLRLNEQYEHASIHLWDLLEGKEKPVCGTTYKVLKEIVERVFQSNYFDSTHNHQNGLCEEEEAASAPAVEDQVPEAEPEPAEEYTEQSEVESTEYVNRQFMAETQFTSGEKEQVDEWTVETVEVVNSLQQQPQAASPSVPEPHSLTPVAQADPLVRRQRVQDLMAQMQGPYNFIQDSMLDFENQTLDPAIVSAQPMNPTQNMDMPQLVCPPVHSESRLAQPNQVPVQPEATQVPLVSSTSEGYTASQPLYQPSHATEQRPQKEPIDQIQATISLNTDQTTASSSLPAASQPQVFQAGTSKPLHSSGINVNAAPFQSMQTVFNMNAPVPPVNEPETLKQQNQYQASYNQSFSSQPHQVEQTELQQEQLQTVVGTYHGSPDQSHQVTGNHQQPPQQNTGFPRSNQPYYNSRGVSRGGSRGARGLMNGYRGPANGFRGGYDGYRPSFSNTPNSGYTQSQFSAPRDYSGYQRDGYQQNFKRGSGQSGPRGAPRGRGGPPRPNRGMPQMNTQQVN
From the text: Reactivity of each monoclonal antibody with human cancer cells confirmed to express CAPRIN-1 protein on cell membrane surfaces was further confirmed by flow cytometry.
The reactivity of the anti-CAPRIN-1 antibody with cancer cells without permeation treatment of cell membranes was examined by flow cytometry to confirm that a portion of CAPRIN-1 was expressed on cell membrane surfaces of cancer cells as shown by Examples given below.

Molecule: N.N.O=C([O-])C1(C(=O)[O-])CCC1.[Pt+2] [carboplatin]
effectiveness of administering carboplatin [1]: not effective

B1: anti-CAPRIN-1 antibody (c) (antibody, V domains shown)
VH: AVTLDESGGGLQTPGGGLSLVCKASGFTFSSFDMGWVRQAPGKGLEFVAQINDAGSRTWYATAVKGRATISRDNGQTTVRLQLNNLRAEDTGTYYCTRGSGYVGAGAIDAWGHGTEVIVS
VL: AALTQPSSVSANPGETVKITCSGGSGYYGWYQQQKSPGSAPVTVIYQNDKRPSDIPSRFSGSGSGSTNTLTITGVQAEDEAVYFCGRYDSTDSGIFGAGTTLTVL
binding result [2]: binds

B2: anti-CAPRIN-1 antibody (e) (antibody, V domains shown)
VH: AVTLDESGGGLQTPGGALSLVCKASGFTFSGYDMLWVRQAPGKGLEWVAGIGSTGGGTDYGAAVKGRATISRDNGQSTVRLQLNNLRAEDTATYYCAKVAGGCNSGYCRDSPGSIDAWGHGTEVIVS
VL: AVTQQPASVSANPGETVKITCSGGGSRNYYGWYQQKSPGSVPVTVIYYDDQRPSNIPSRFSGALSGSTSTLTITGVQADDEAVYFCGSADSNTYEGSFGAGTTLTVL
binding result [2]: binds

B3: anti-CAPRIN-1 antibody (af) (antibody, V domains shown)
VH: EVQLVESGGGLVQPGGSLRLSCAASGFSLSSHSLGWVRQAPGKGLEWIGDIRSGGSAYYANWAKGRFTISRDNSKNTLYLQMNSLRAEDTAVYYCTRTNGPSDLTNRLDLWGQGTLVTVSS
VL: QVLTQSPSSLSASVGDRVTINCQASQSLYNNENLAWFQQKPGKVPKRLIYGASTLASGVSSRFSGSGSGTEFTLTISSLQCEDFAIYYCLGEFSCGSADCFAFGGGTKVEIK
binding result [2]: binds

B4: anti-CAPRIN-1 antibody (ah) (antibody, V domains shown)
VH: B3 VH
VL: EQVLTQSPSSLSASVGDRVTINCQASQSLYNNENLAWFQQKPGKVPKRLIYGASTLASGVSSRFSGSGSGTEFTLTISNLQPEDFAIYYCLGEFSCGSADCFAFGGGTKVEIK
binding result [2]: binds

B5: anti-CAPRIN-1 antibody (b) (antibody, V domains shown)
VH: B3 VH with V2Q, Q3S
VL: B3 VL
binding result [2]: binds

B6: anti-CAPRIN-1 antibody (aj) (antibody, V domains shown)
VH: B3 VH
VL: B4 VL with Q2I, I87T
binding result [2]: binds

B7: anti-CAPRIN-1 antibody (ai) (antibody, V domains shown)
VH: B3 VH with Y94F
VL: B4 VL with Q2I, I87T
binding result [2]: binds

B8: anti-CAPRIN-1 antibody (ag) (antibody, V domains shown)
VH: B3 VH with Y94F
VL: B3 VL
binding result [2]: binds

B9: anti-CAPRIN-1 antibody (ak) (antibody, V domains shown)
VH: B3 VH with Y94F
VL: B4 VL
binding result [2]: binds

B15: (ab): monoclonal antibody against CAPRIN-1 described in WO2013/125630, heavy-chain variable region SEQ ID NO: 114, light-chain variable region SEQ ID NO: 115 (antibody, listed as Mus musculus, V domains shown)
VH: GPELVKPGASVKMSCKASGYTFTSYVMHWVKQKPGQGLEWIGYINPYNDGTKYNEKFKGKATLTSDKSSSTAYMELSSLTSEDSAVYYCARRYYYGSSGGYFDVWAQDHVRT
VL: DVQITQSPSYLAASPGETITINCRASKSISKYLAWYQEKPGKTNKLLIYSGSTLQSGIPSRFSGSGSGTDFTLTISSLEPEDFAMYYCQQHNEYPYTFGGGTKLEIKR
reactivity with cell membrane surfaces of cancer cells (fluorescence intensity versus negative control antibody) [3]: reacted strongly

Other lines, results leading:

binding result [2]: binds
B10: anti-CAPRIN-1 antibody (d) (antibody, V domains shown)
VH: QSLEESGGDLVKPGASLTLTCTASGFSFSGSYYMSWVRQAPGKGLEWIAYIYIGDGVTAYANWAKGRFTISKASSTTVTLQMTSLTAADTATYFCARGNKLWGPGTLVTVSS
VL: DVVMTQTPASVEAAVGGTVTIKCQASQSISSYLAWYQQKPGQPPKRLIYDASNLDSGVPSRFKGSGSGTDFTITISDLECADAATYYCQCTAVSSATIYGNAFGGGTEVVVK

binding result [2]: binds
B11: anti-CAPRIN-1 antibody (i) (antibody, V domains shown)
VH: GAELVRSGASVKMSCKASGYSFTDYNMYWVKQTPGQGLEWIGYIYPGNGGTNYNQKFKGKATLTADTSSSTAYMQISSLTSEDSAVYFCARDYDDGGYAMDYWGQGTTVTVSS
VL: DIQMTQSPASLSASVGETVTITCRASGNIHNYLTWYQQKQGKSPQLLVYNAKTLADGVPSRFSGSGSGTQYSLKINRLQPEDFGSYYCQHFWNIPWTFGGGTKLNSR

binding result [2]: binds
B12: anti-CAPRIN-1 antibody (j) (antibody, V domains shown)
VH: DAELVKPGASVKISCKASGYTFTDHSIHWVQQKPEQGLEWIGYISPGNGNIKYNEKFKGKATLTADKSSSTAYMQLNSLTSEDSAVYFCKRSLGRGGPYYFDYWGQGTTVTVSS
VL: DIVLTQAAPSLPVTPGESVSISCRSSKSLLHSNGNTYLYWFLQRPGQSPQLLIYRMSNLASGVPDRFSGSGSGTAFTLRISRVEAEDVGVYYCMQHREYPVTFGSGPN

binding result [2]: binds
B13: anti-CAPRIN-1 antibody (a) (antibody, V domains shown)
VH: AVTLDESGGGLQMSRGGLSLVCKASGFDFSSYQMNWIRQAPGKGLEFVAAINKFGNSTGHGAAVKGRVTISRDNGQSTVRLQLNNLRAEDTAIYFCTKHAYGYCGSGTWCAAGEIDAWGHGTEVIVSS
VL: QAASTQPSSVSANPGETVEITCSGGGSYSYGWFQQKSPGSAPVTVIYYNNKRPSDIPSRFSGSKSGSTGTLTITGVQADDEAVYYCGSGDSTDTAVFGAGTTLTVLG

binding result [2]: binds
B14: anti-CAPRIN-1 antibody (o) (antibody, V domains shown)
VH: EVQLHQFGAELVKPGASVKISCKASGYTFTDYNMDWVKQSHGKSLEWIGDINPNYDSTSYNQKFKGKATLTVDKSSSTAYMELRSLTSEDTAVYYCARSRSYDYEGFAYWGQGTLVTVSA
VL: DIQMTQSPASLSASVGETVTITCRASGNIHNYLAWYQQKQGKSPQLLVYNAKTLADGVPSRFSGSGSGTQYSLKINSLQPEDFGSYYCQHFWSTLTFGAGTKLELKR
